Sequences and labels used below:
B1: JUP (protein, UniProt P14923 1-745, looked up)
Junction plakoglobin: MEVMNLMEQPIKVTEWQQTYTYDSGIHSGANTCVPSVSSKGIMEEDEACGRQYTLKKTTTYTQGVPPSQGDLEYQMSTTARAKRVREAMCPGVSGEDSSLLLATQVEGQATNLQRLAEPSQLLKSAIVHLINYQDDAELATRALPELTKLLNDEDPVVVTKAAMIVNQLSKKEASRRALMGSPQLVAAVVRTMQNTSDLDTARCTTSILHNLSHHREGLLAIFKSGGIPALVRMLSSPVESVLFYAITTLHNLLLYQEGAKMAVRLADGLQKMVPLLNKNNPKFLAITTDCLQLLAYGNQESKLIILANGGPQALVQIMRNYSYEKLLWTTSRVLKVLSVCPSNKPAIVEAGGMQALGKHLTSNSPRLVQNCLWTLRNLSDVATKQEGLESVLKILVNQLSVDDVNVLTCATGTLSNLTCNNSKNKTLVTQNSGVEALIHAILRAGDKDDITEPAVCALRHLTSRHPEAEMAQNSVRLNYGIPAIVKLLNQPNQWPLVKATIGLIRNLALCPANHAPLQEAAVIPRLVQLLVKAHQDAQRHVAAGTQQPYTDGVRMEEIVEGCTGALHILARDPMNRMEIFRLNTIPLFVQLLYSSVENIQRVAAGVLCELAQDKEAADAIDAEGASAPLMELLHSRNEGTATYAAAVLFRISEDKNPDYRKRVSVELTNSLFKHDPAAWEAAQSMIPINEPYGDDMDATYRPMYSSDVPLDPLEMHMDMDGDYPIDTYSDGLRPPYPTADHMLA
B2: CAV2 (protein, UniProt P51636 1-162, looked up)
Caveolin-2: MGLETEKADVQLFMDDDSYSHHSGLEYADPEKFADSDQDRDPHRLNSHLKLGFEDVIAEPVTTHSFDKVWICSHALFEISKYVMYKFLTVFLAIPLAFIAGILFATLSCLHIWILMPFVKTCLMVLPSVQTIWKSVTDVIIAPLCTSVGRCFSSVSLQLSQD
B3: PTPN22 (protein, UniProt Q9Y2R2 1-807, looked up)
Tyrosine-protein phosphatase …: MDQREILQKFLDEAQSKKITKEEFANEFLKLKRQSTKYKADKTYPTTVAEKPKNIKKNRYKDILPYDYSRVELSLITSDEDSSYINANFIKGVYGPKAYIATQGPLSTTLLDFWRMIWEYSVLIIVMACMEYEMGKKKCERYWAEPGEMQLEFGPFSVSCEAEKRKSDYIIRTLKVKFNSETRTIYQFHYKNWPDHDVPSSIDPILELIWDVRCYQEDDSVPICIHCSAGCGRTGVICAIDYTWMLLKDGIIPENFSVFSLIREMRTQRPSLVQTQEQYELVYNAVLELFKRQMDVIRDKHSGTESQAKHCIPEKNHTLQADSYSPNLPKSTTKAAKMMNQQRTKMEIKESSSFDFRTSEISAKEELVLHPAKSSTSFDFLELNYSFDKNADTTMKWQTKAFPIVGEPLQKHQSLDLGSLLFEGCSNSKPVNAAGRYFNSKVPITRTKSTPFELIQQRETKEVDSKENFSYLESQPHDSCFVEMQAQKVMHVSSAELNYSLPYDSKHQIRNASNVKHHDSSALGVYSYIPLVENPYFSSWPPSGTSSKMSLDLPEKQDGTVFPSSLLPTSSTSLFSYYNSHDSLSLNSPTNISSLLNQESAVLATAPRIDDEIPPPLPVRTPESFIVVEEAGEFSPNVPKSLSSAVKVKIGTSLEWGGTSEPKKFDDSVILRPSKSVKLRSPKSELHQDRSSPPPPLPERTLESFFLADEDCMQAQSIETYSTSYPDTMENSTSSKQTLKTPGKSFTRSKSLKILRNMKKSICNSCPPNKPAESVQSNNSSSFLNFGFANRFSKPKGPRNPPPTWNI

Consider three molecules from patent publication US9958461B2, “Detection of protein to protein interactions” (THE GOVERNING COUNCIL OF THE UNIVERSITY OF TORONTO, priority 2013, dated 2018).

One experiment has as its system EGFR-Wt. The experiment in a line: MaMTH EGFR-interactor screen, lentiviral preys against EGFR-wildtype bait (interaction score). The note with it: ratio of EGFR-Wt mean to EGFR-L858R mean interaction score. The class given is cell-based, human. In short, it runs like this: (§1)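 Interaction score is the luciferase fold-change versus averaged negative controls (Fabp5, Pex19, Pex7, GABBR2), with >1 called interacting. Luciferase was measured 24 h after triplicate bait transfection. This followed single-copy prey transduction (MOI ~0.3-0.4) of GAL4UAS-luciferase HEK293T cells and ≥48 h puromycin selection.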
For the molecule B1, the Wt/L858R is listed as 0.39.

For the molecule B2, the Wt/L858R is 0.39.

B3: the Wt/L858R turned out to be 8.23.

The next experiment deals with T1, EGFR-Wt (Homo sapiens, UniProt P00533).
T1 construct: with the advantage of testing full-length integral membrane proteins; (GGGGS)2 linker-Cub (human ubiquitin aa 35-76)-GAL4(1-147)-mNFkB(364-550) (C); expressed in transfected cells
Described as above. The class given is cell-based. The note with it: MaMTH interaction score of prey with EGFR-Wt bait, mean. Summed up:
as §1
For the molecule B1, the EGFR-Wt mean is recorded as 0.98.

As to B2, the EGFR-Wt mean is reported as 2.57.

The molecule B3 registered an EGFR-Wt mean of 2.99.

In the next experiment the target is T2, EGFR-L858R (Homo sapiens, UniProt P00533, L858R).
T2 construct: with the advantage of testing full-length integral membrane proteins; (GGGGS)2 linker-Cub (human ubiquitin aa 35-76)-GAL4(1-147)-mNFkB(364-550) (C); expressed in transfected cells
The experiment in a line: MaMTH EGFR-interactor screen, lentiviral preys against EGFR-L858R bait (interaction score). The class given is cell-based. Particulars: MaMTH interaction score of prey with EGFR-L858R bait. In short, it runs like this:
as §1
Regarding B1, the EGFR-L858R mean is 2.51.

The molecule B2 had an EGFR-L858R mean of 6.58.

The molecule B3 showed an EGFR-L858R mean of 0.36.
